This is an account of results in the supplement of paper PMC5998384.

Data set [1] concerns HeLa Kyoto. Nature of the data set: solubility in G1/S (NP-40 vs SDS abundance) (log2 ratio); higher = more soluble. To be noted: cell cycle stage: G1/S.
Data set [2] relates to HeLa Kyoto. Nature of the data set: melting temperature (median over replicates), in situ; higher = more thermally stable.
The test system of data set [3] is HeLa Kyoto. Nature of the data set: solubility change mitosis vs G1/S (difference of NP-40 vs SDS log2 ratios) (log2 ratio difference); higher = more soluble in mitosis.
The subject of data set [4] is HeLa Kyoto. Nature of the data set: thermal stability score vs G1/S (z-score of summed log2 fold changes over temperatures); higher = more thermally stable than in G1/S.
Where [5] appears, read: cell cycle stage: early G1 (4.5 h after nocodazole release).
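For melting temperature (median over replicates), in situ in this document: HeLa Kyoto cells synchronized by double thymidine or nocodazole block, proteins quantified by TMT10plex mass spectrometry, three independent biological replicates.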
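For solubility change mitosis vs G1/S (difference of NP-40 vs SDS log2 ratios) in this document: synchronized HeLa Kyoto cells (double thymidine block for G1/S, nocodazole release for mitosis), protein amounts in NP-40 versus SDS lysates quantified by mass spectrometry, three biological replicates.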
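For solubility in G1/S (NP-40 vs SDS abundance) in this document: HeLa Kyoto cells arrested at G1/S by double thymidine block, proteins quantified by TMT10plex mass spectrometry in mild NP-40 versus SDS extracts, three biological replicates.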
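For thermal stability score vs G1/S (z-score of summed log2 fold changes over temperatures) in this document: synchronized HeLa Kyoto cells, proteins quantified by TMT10plex mass spectrometry, three biological replicates, mitosis taken 0.5 h after nocodazole release, G1/S directly after double thymidine block.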

Consider “MAGVRSLRCSRGCAGGCECGDKGKCSDSSLLGKRLSEDSSRHQLLQKWASMWSSMSEDASVADMERAQLEEEAAAAEERPLVFLCSGCRRPLGDSLSWVASQEDTNCILLRCVSCNVSVDKEQKLSKREKENGCVLETLCCAGCSLNLGYVYRCTPKNLDYKRDLFCLSVEAIESYVLGSSEKQIVSEDKELFNLESRVEIEKSLTQMEDVLKALQMKLWEAESKLSFATCKS [MIS18A]”, for which the “solubility in G1/S (log2)” value in the data set on HeLa Kyoto [1] is -0.162. Moreover, the melting temperature with HeLa Kyoto [2] (cell cycle stage: G1/S) stood at 51.3 °C; in the data set with HeLa Kyoto [2] (cell cycle stage: mitosis), 51.9 °C. In the data set on HeLa Kyoto [3], the “solubility change mitosis (log2)” value came to 0.371. For the same sequence, the thermal stability score is -2.17 in the data set on HeLa Kyoto [4] (setting [5]) and -2.88 in the data set with HeLa Kyoto [4] (cell cycle stage: mitosis).

Take “MAGVSFSGHRLELLAAYEEVIREESAADWALYTYEDGSDDLKLAASGEGGLQELSGHFENQKVMYGFCSVKDSQAALPKYVLINWVGEDVPDARKCACASHVAKVAEFFQGVDVIVNASSVEDIDAGAIGQRLSNGLARLSSPVLHRLRLREDENAEPVGTTYQKTDAAVEMKRINREQFWEQAKKEEELRKEEERKKALDERLRFEQERMEQERQEQEERERRYREREQQIEEHRRKQQTLEAEEAKRRLKEQSIFGDHRDEEEETHMKKSESEVEEAAAIIAQRPDNPREFFKQQERVASASAGSCDVPSPFNHRPGSHLDSHRRMAPTPIPTRSPSDSSTASTPVAEQIERALDEVTSSQPPPLPPPPPPAQETQEPSPILDSEETRAAAPQAWAGPMEEPPQAQAPPRGPGSPAEDLMFMESAEQAVLAAPVEPATADATEIHDAADTIETDTATADTTVANNVPPAATSLIDLWPGNGEGASTLQGEPRAPTPPSGTEVTLAEVPLLDEVAPEPLLPAGEGCATLLNFDELPEPPATFCDPEEVEGESLAAPQTPTLPSALEELEQEQEPEPHLLTNGETTQKEGTQASEGYFSQSQEEEFAQSEELCAKAPPPVFYNKPPEIDITCWDADPVPEEEEGFEGGD [DBN1]”: the “solubility in G1/S (log2)” value with HeLa Kyoto [1] was -1.2. Moreover, the values for the melting temperature in the data set on HeLa Kyoto [2] (cell cycle stage: G1/S) and in the data set with HeLa Kyoto [2] (cell cycle stage: mitosis) were 52.3 °C and 52.1 °C, respectively. In addition, in the data set with HeLa Kyoto [3], the “solubility change mitosis (log2)” value was found to be 0.101. The thermal stability score was -3.76 in the data set with HeLa Kyoto [4] (setting [5]) and -0.742 with HeLa Kyoto [4] (cell cycle stage: mitosis).

For the sequence “MAHRPKRTFRQRAADSSDSDGAEESPAEPGAPRELPVPGSAEEEPPSGGGRAQVAGLPHRVRGPRGRGRVWASSRRATKAAPRADEGSESRTLDVSTDEEDKIHHSSESKDDQGLSSDSSSSLGEKELSSTVKIPDAAFIQAARRKRELARAQDDYISLDVQHTSSISGMKRESEDDPESEPDDHEKRIPFTLRPQTLRQRMAEESISRNEETSEESQEDEKQDTWEQQQMRKAVKIIEERDIDLSCGNGSSKVKKFDTSISFPPVNLEIIKKQLNTRLTLLQETHRSHLREYEKYVQDVKSSKSTIQNLESSSNQALNCKFYKSMKIYVENLIDCLNEKIINIQEIESSMHALLLKQAMTFMKRRQDELKHESTYLQQLSRKDETSTSGNFSVDEKTQWILEEIESRRTKRRQARVLSGNCNHQEGTSSDDELPSAEMIDFQKSQGDILQKQKKVFEEVQDDFCNIQNILLKFQQWREKFPDSYYEAFISLCIPKLLNPLIRVQLIDWNPLKLESTGLKEMPWFKSVEEFMDSSVEDSKKESSSDKKVLSAIINKTIIPRLTDFVEFLWDPLSTSQTTSLITHCRVILEEHSTCENEVSKSRQDLLKSIVSRMKKAVEDDVFIPLYPKSAVENKTSPHSKFQERQFWSGLKLFRNILLWNGLLTDDTLQELGLGKLLNRYLIIALLNATPGPDVVKKCNQVAACLPEKWFENSAMRTSIPQLENFIQFLLQSAHKLSRSEFRDEVEEIILILVKIKALNQAESFIGEHHLDHLKSLIKED [GCFC2]”, the “solubility in G1/S (log2)” value in the data set with HeLa Kyoto [1] was 0.109. Also, the melting temperature is 51.2 °C in the data set on HeLa Kyoto [2] (cell cycle stage: G1/S) and 51.7 °C with HeLa Kyoto [2] (cell cycle stage: mitosis). Further, the “solubility change mitosis (log2)” value with HeLa Kyoto [3] is -0.0501. In addition, the thermal stability score in the data set with HeLa Kyoto [4] (setting [5]) is -2.18; with HeLa Kyoto [4] (cell cycle stage: mitosis), -1.62.

With “MAKMEVKTSLLDNMIGVGDMVLLEPLNEETFINNLKKRFDHSEIYTYIGSVVISVNPYRSLPIYSPEKVEEYRNRNFYELSPHIFALSDEAYRSLRDQDKDQCILITGESGAGKTEASKLVMSYVAAVCGKGAEVNQVKEQLLQSNPVLEAFGNAKTVRNDNSSRFGKYMDIEFDFKGDPLGGVISNYLLEKSRVVKQPRGERNFHVFYQLLSGASEELLNKLKLERDFSRYNYLSLDSAKVNGVDDAANFRTVRNAMQIVGFMDHEAESVLAVVAAVLKLGNIEFKPESRVNGLDESKIKDKNELKEICELTGIDQSVLERAFSFRTVEAKQEKVSTTLNVAQAYYARDALAKNLYSRLFSWLVNRINESIKAQTKVRKKVMGVLDIYGFEIFEDNSFEQFIINYCNEKLQQIFIELTLKEEQEEYIREDIEWTHIDYFNNAIICDLIENNTNGILAMLDEECLRPGTVTDETFLEKLNQVCATHQHFESRMSKCSRFLNDTSLPHSCFRIQHYAGKVLYQVEGFVDKNNDLLYRDLSQAMWKASHALIKSLFPEGNPAKINLKRPPTAGSQFKASVATLMKNLQTKNPNYIRCIKPNDKKAAHIFNEALVCHQIRYLGLLENVRVRRAGYAFRQAYEPCLERYKMLCKQTWPHWKGPARSGVEVLFNELEIPVEEYSFGRSKIFIRNPRTLFKLEDLRKQRLEDLATLIQKIYRGWKCRTHFLLMKKSQIVIAAWYRRYAQQKRYQQTKSSALVIQSYIRGWKARKILRELKHQKRCKEAVTTIAAYWHGTQARRELRRLKEEARNKHAIAVIWAYWLGSKARRELKRLKEEARRKHAVAVIWAYWLGLKVRREYRKFFRANAGKKIYEFTLQRIVQKYFLEMKNKMPSLSPIDKNWPSRPYLFLDSTHKELKRIFHLWRCKKYRDQFTDQQKLIYEEKLEASELFKDKKALYPSSVGQPFQGAYLEINKNPKYKKLKDAIEEKIIIAEVVNKINRANGKSTSRIFLLTNNNLLLADQKSGQIKSEVPLVDVTKVSMSSQNDGFFAVHLKEGSEAASKGDFLFSSDHLIEMATKLYRTTLSQTKQKLNIEISDEFLVQFRQDKVCVKFIQGNQKNGSVPTCKRKNNRLLEVAVP [MYO1B]”, the “solubility in G1/S (log2)” value with HeLa Kyoto [1] was -0.528. In addition, the results for the melting temperature in the data set on HeLa Kyoto [2] (cell cycle stage: G1/S) and with HeLa Kyoto [2] (cell cycle stage: mitosis) were 50.5 °C and 50.1 °C, respectively. The “solubility change mitosis (log2)” value in the data set with HeLa Kyoto [3] was -0.0354. Also, the thermal stability score in the data set with HeLa Kyoto [4] (setting [5]) is -0.836; in the data set on HeLa Kyoto [4] (cell cycle stage: mitosis), -0.507.

On to “MAKPAQGAKYRGSIHDFPGFDPNQDAEALYTAMKGFGSDKEAILDIITSRSNRQRQEVCQSYKSLYGKDLIADLKYELTGKFERLIVGLMRPPAYCDAKEIKDAISGIGTDEKCLIEILASRTNEQMHQLVAAYKDAYERDLEADIIGDTSGHFQKMLVVLLQGTREEDDVVSEDLVQQDVQDLYEAGELKWGTDEAQFIYILGNRSKQHLRLVFDEYLKTTGKPIEASIRGELSGDFEKLMLAVVKCIRSTPEYFAERLFKAMKGLGTRDNTLIRIMVSRSELDMLDIREIFRTKYEKSLYSMIKNDTSGEYKKTLLKLSGGDDDAAGQFFPEAAQVAYQMWELSAVARVELKGTVRPANDFNPDADAKALRKAMKGLGTDEDTIIDIITHRSNVQRQQIRQTFKSHFGRDLMTDLKSEISGDLARLILGLMMPPAHYDAKQLKKAMEGAGTDEKALIEILATRTNAEIRAINEAYKEDYHKSLEDALSSDTSGHFRRILISLATGHREEGGENLDQAREDAQVAAEILEIADTPSGDKTSLETRFMTILCTRSYPHLRRVFQEFIKMTNYDVEHTIKKEMSGDVRDAFVAIVQSVKNKPLFFADKLYKSMKGAGTDEKTLTRIMVSRSEIDLLNIRREFIEKYDKSLHQAIEGDTSGDFLKALLALCGGED [ANXA6]”, for which the “solubility in G1/S (log2)” value with HeLa Kyoto [1] is 0.275. Also, the melting temperature in the data set on HeLa Kyoto [2] (cell cycle stage: G1/S) and in the data set with HeLa Kyoto [2] (cell cycle stage: mitosis) was 50 °C in each case. For the same sequence, the “solubility change mitosis (log2)” value in the data set with HeLa Kyoto [3] was -0.172. Moreover, the thermal stability score with HeLa Kyoto [4] (setting [5]) stood at 5.43; in the data set on HeLa Kyoto [4] (cell cycle stage: mitosis), 4.61.
